The values that follow come from PMC7958378.

The target of this assay is GmPUB13(252-630) (soybean (Glycine max)). The assay can be described thus: ITC. A general note: ITC needs no label: the signal is the heat of the interaction.

pKd: −log10 of the molar value.

The pKd is the Kd on a negative log10 scale, so that one unit is a factor of ten. A higher pKd goes with a low Kd.

“Avr1d (purified protein for ITC and gel filtration) (natural protein)” showed a pKd of 7.05.
